Source: US20260373285 (published 2026)

Tests used:
cPD-L1(ECD)-His = cPD-L1(ECD)-His (cynomolgus); assay: ELISA
hPD-L1(ECD)-His [1] = target: T1, hPD-L1(ECD)-His (human, UniProt Q9NZQ7); assay: SPR
[2] = target: T2, human PD-L1 full length (on CHO cells) (human, UniProt Q9NZQ7); assay: competition FACS vs CD80
[3] = target: T2, human PD-L1 full length (on CHO cells); assay: competition FACS vs PD-1
[4] = target: T2, human PD-L1 full length (on CHO cells); assay: FACS
hPD-L1(ECD)-His [5] = target: T1, hPD-L1(ECD)-His; assay: ELISA

T2 sequence (Q9NZQ7 19-238): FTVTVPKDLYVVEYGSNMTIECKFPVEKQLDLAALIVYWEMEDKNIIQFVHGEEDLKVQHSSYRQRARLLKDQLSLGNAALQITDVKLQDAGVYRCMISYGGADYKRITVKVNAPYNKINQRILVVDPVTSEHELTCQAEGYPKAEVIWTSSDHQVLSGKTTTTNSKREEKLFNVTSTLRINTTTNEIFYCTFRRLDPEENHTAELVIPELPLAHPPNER
T1 sequence (Q9NZQ7 19-238): as above
cPD-L1(ECD)-His (cynomolgus), sequence (chain, as listed by the source): as the sequence (Q9NZQ7 19-238) above, with A33T, A34S, S62N, R68Q, Q82R, F173L, T185A, T192I, H215L counted along it

EC50 (cPD-L1(ECD)-His): 380 pM | Kd (hPD-L1(ECD)-His [1]): 295 pM | IC50 [2]: 2070 pM | IC50 [3]: 3000 pM | EC50 [4]: 1020 pM | EC50 (hPD-L1(ECD)-His [5]): 28 pM
B1: PD-L1-1.168.15 (antibody, V domains shown)
VH: EVQLQQSGAELVKPGASVKLSCTVSGFNIEDTYIYWVKQRPEQGLEWIGWIDPANYNTKYDPRFQDKATVTVDTSSNTAYMHLSSLTSEDTAVYYCARGLRLLMDYWGQGTSVTVSS
VL: DIVMTQSQKFMSSSVGDRVSITCKASQNVHTSLAWYQQRPGQSPKALIYLASNRHTGVPDRFTGSGSGTDFTLTISNVQSEDLADYFCLQHWNYPLTFGAGTKLELRR
